These results are taken from US20250304677A1 (VIB VZW, published 2025).

The target in assay [1] is T1, human FRβ with R135 replaced by glutamine (human, UniProt P14207 17-230).
T1 construct: The entry is the mutant itself; also called hFRβ R135Q
The assay can be described thus: flow cytometry on transiently transfected HEK293T cells, 200 nM VHH, mouse anti-His then anti-mouse-PE (B575-A). The source says: FIGS. 2A-2C illustrates the epitope mapping of anti-FOLR1 VHHs on human FOLR1/2 chimeras. ^{∘}FIG. 2A) To narrow down the epitope of the anti-folate receptor alpha ^{∘}FOLR1) VHHs, chimeric constructs were generated by exchanging a sequence block in human FOLR1 ^{∘}hFOLR1) by the corresponding human folate receptor beta ^{∘}hFOLR2) sequence, since the VHHs are able to bind both hFOLR1 and mouse FOLR1 ^{∘}mFOLR1; SEQ ID No.97), but not hFOLR2. These regions are indicated by the green arrows. Chimera 1 SEQ ID No. 67) and 7 ^{∘}Ch7; SEQ ID No. 73) also contain an additional residue change at a separate location. […] HEK293T cells were transfected with hFOLR1, hFOLR2, one of the hFOLR1/2 chimeric constructs ^{∘}FIG. 2B) or single residue mutants ^{∘}FIG. 2C). Binding of VHHs 2HFO19, 2HFO42, 3MFR60, and a mouse anti-FOLR1 monoclonal antibody ^{∘}mAb) was detected using a mouse anti-His tag antibody for the VHHs followed by an anti-mouse-phycoerythrin antibody. All VHHs were tested at a concentration of 200 nM and untransfected cells were used as a negative control. The colors used for the VHHs represent the different CDR3 families; blue: family 1, green: family 3, grey: family 10.
To further narrow down which specific residues might play a role, single residues of human FRα in the chimera 4 region that are not conserved between FRα and FRβ were mutated to their human FRβ counterpart. While all VHHs retained binding to human FRα E140Q SEQ ID No. 77), R147H ^{∘}SEQ ID No. 79), and Y150H ^{∘}SEQ ID No. 80) ^{∘}data not shown), binding was completely abolished when the Q141R mutation ^{∘}SEQ ID No. 78) was introduced ^{∘}FIG. 2C). To verify the role of this residue in the binding of the VHHs, the R135 residue in human FRβ was replaced by glutamine ^{∘}SEQ ID No. 81) and binding of the VHHs was analyzed. […] In addition to having ^{∘}partially) overlapping epitopes, the VHHs thus all require residue Q141 for binding.

Assay [2] has as its target T2, mouse folate receptor alpha (mFRα), recombinant protein (mouse, UniProt P35846 25-232).
T2 construct: Bought recombinant proteins (e.g. biotinylated, Acro Biosystems FO1-M82E9); also called mFOLR1; Ms FOLR1
Briefly: BLI tandem binning on mouse FRα; competitor (1st association) 2HFO19. From the text: VHHs that share high sequence identity in the CDR3 region, a VHH family, are derived from the same B-cell lineage and diverged from each other due to somatic hypermutation or affinity maturation. Typically, VHHs from the same family recognize the same epitope on the target, but may differ in other characteristics ^{∘}De Genst et al 2006 PNAS 103:4586-4591; De Gents et al 2005 J Biol Chem 280:14114-14121). To study whether the VHHs from the different families bound different epitopes, epitope binning was performed using a tandem binding approach in BLI. One VHH from each family was allowed to bind to mouse FRα on the biosensor, followed by binding of the second VHH ^{∘}Table 4).
Competition between VHHs from different complementarity determining region ^{∘}CDR) 3 families was assessed in a tandem binding assay using biolayer interferometry ^{∘}BLI). Streptavidin biosensors were loaded with biotinylated mouse FRα ^{∘}Acro Biosystems, Cat.nr. FO1-M82E9), followed by binding of anti-FRα VHHs ^{∘}VHH in first association). The biosensors were then transferred to a solution containing a second VHH mixed 1:1 with the first VHH ^{∘}VHH in second association). Using the FortéBio Data Analysis Software the absolute additional binding signal for the second association on top of the first association was calculated. The data were normalized per VHH in first association using the following formula: ^{∘}signal-self)/^{∘}maximum-self) with self being the value of the VHH in first association in combination with the same VHH in second association.

For a further assay, the target named is T3, human FOLR1/2 chimera 4 (human, UniProt P15328 25-234).
T3 construct: Region of amino acids 140-150 of hFOLR1 replaced by hFOLR2
T3 sequence (P15328 other isoform, or with tags, fused parts or gaps mutant limits assumed): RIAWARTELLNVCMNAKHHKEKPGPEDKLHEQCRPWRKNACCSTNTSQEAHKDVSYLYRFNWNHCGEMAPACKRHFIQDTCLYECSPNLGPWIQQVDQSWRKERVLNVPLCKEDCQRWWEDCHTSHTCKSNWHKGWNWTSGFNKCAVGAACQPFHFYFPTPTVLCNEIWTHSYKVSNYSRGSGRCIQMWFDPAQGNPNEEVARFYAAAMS
Briefly: flow cytometry on transiently transfected HEK293T cells, mouse anti-His then anti-mouse-PE (B575-A). As to the method:
Chimera 1 SEQ ID No. 67) and 7 ^{∘}Ch7; SEQ ID No. 73) also contain an additional residue change at a separate location. […] HEK293T cells were transfected with hFOLR1, hFOLR2, one of the hFOLR1/2 chimeric constructs ^{∘}FIG. 2B) or single residue mutants ^{∘}FIG. 2C). Binding of VHHs 2HFO19, 2HFO42, 3MFR60, and a mouse anti-FOLR1 monoclonal antibody ^{∘}mAb) was detected using a mouse anti-His tag antibody for the VHHs followed by an anti-mouse-phycoerythrin antibody. All VHHs were tested at a concentration of 200 nM and untransfected cells were used as a negative control. The colors used for the VHHs represent the different CDR3 families; blue: family 1, green: family 3, grey: family 10.
To identify the exact region in which the VHHs bind to FRα, epitope mapping experiments were performed. Since the VHHs are able to bind human FRα, but not FRβ, we generated seven human FOLR1/2 chimeric constructs where regions of human FOLR1 were replaced by the corresponding human FOLR2 ^{∘}FRβ) regions ^{∘}FIG. 2A): chimera 1 SEQ ID No. 67), chimera 2 ^{∘}SEQ ID No. 68), chimera 3 ^{∘}SEQ ID No. 69), chimera 4 ^{∘}SEQ ID No. 70), chimera 5 ^{∘}SEQ ID No. 71), chimera 6 ^{∘}SEQ ID No. 72) and chimera 7 ^{∘}SEQ ID No. 73). Three additional chimera 1 constructs were made: chimera 1a ^{∘}replacing fragment 31-40; SEQ ID No. 74), chimera 1b ^{∘}replacing fragment 41-50; SEQ ID No. 75) and chimera 1c ^{∘}replacing fragment 51-64; SEQ ID NO. 76). The constructs were transiently transfected into HEK293T cells and dose-dependent binding of the VHHs to the wild-types FRα and FRβ ^{∘}WTs) or the chimeric constructs was assessed via flow cytometry via detection of the tag ^{∘}FIG. 2B). […] Different anti-FRα VHHs were able to bind to cell-expressed FRα-FRβ chimeras to a similar level as WT FRα, with the exception of chimera 4 ^{∘}SEQ ID No. 70) where the binding was completely abolished for all VHHs.

T2 sequence (P35846 25-232 limits assumed): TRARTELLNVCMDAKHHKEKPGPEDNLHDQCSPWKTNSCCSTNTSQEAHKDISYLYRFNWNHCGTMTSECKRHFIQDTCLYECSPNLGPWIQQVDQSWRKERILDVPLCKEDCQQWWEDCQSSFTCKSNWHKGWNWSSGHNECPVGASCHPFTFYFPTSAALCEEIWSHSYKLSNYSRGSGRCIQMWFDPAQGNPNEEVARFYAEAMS
T1 sequence (P14207 17-230 R135Q limits assumed): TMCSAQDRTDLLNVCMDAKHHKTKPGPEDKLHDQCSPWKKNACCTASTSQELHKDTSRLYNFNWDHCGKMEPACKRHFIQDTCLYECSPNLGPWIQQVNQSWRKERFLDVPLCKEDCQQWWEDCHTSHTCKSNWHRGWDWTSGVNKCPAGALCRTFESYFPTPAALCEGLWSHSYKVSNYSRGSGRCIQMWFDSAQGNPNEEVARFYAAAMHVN

B1: VHH 2HFO42 (family 3) (VHH)
VHH: QVQLQESGGGLVQAGGSLRLSCAASGSGFSGMIMGWYRQVPGKQRELVATVTSHGTTNYADSVKGRFTISRDNAKNTVLLQMNSLKPEDTAVYYCNAHFPGIYWGKGTQVTVSS
notes: also called 2HF042; Nb42
In the case of B1, the values for the binding result (in assay [1]; in the assay with human FOLR1/2 chimera 4) were “binds” and “no binding (tested: 200 nM)”, respectively. Further, the “normalized additional binding in 2nd association” value (shortened to “normalized additional binding”) in assay [2] was found to be 1%.

B2: VHH 3MFR60 (family 10) (VHH)
VHH: QVQLQESGGGLVQAGGSLRVSCAASGIIFSMNGMGWFRQAPGKQRELVASITSGGSTKYADSVKGRFTISRDNAKNTVYLQMNSLKPEDTAVYYCNIQFGSRWSTYWGQGTQVTVSS
Regarding B2, the binding result in assay [1] is listed as “binds”; with human FOLR1/2 chimera 4, “no binding (tested: 200 nM)”. In assay [2], the “normalized additional binding” value was found to be 6%.

B3: VHH 2HFO19 (family 1) (VHH)
VHH: QVQLQESGGGLVQPGGSLRVSCAASGFPFSTVYMSWVRQAPGKGLEWVSGINNDGGVIDYADSVKGRFTISRDNAKNTLYLQLNSLKPEDTALYFCARGRSFVATLSSSLRGQGTQVTVSS
notes: also called Nb19
On to B3, for which the binding result in assay [1] was “binds”; with human FOLR1/2 chimera 4, “no binding (tested: 200 nM)”. Besides, the “normalized additional binding” value in assay [2] worked out at 0%.
